Laboratory results: US11001838B2, “Platform for screening phosphomevalonate decarboxylase” (The Regents of the University of California, priority 2017, dated 2021)
Residue numbers refer to the chain shown, from its start. Names and notes keep the numbering of the source. Values joined by “and” are separate entries in the source; they are usually repeats but may differ in a detail not shown here. Equal entries are not always repeated.

Assays:
DH1 = assay: Fosmidomycin sensitivity of E. coli strain DH1; type: cell-based
Description: Fosmidomycin sensitivity was tested by introducing various amounts of fosmidomycin into DH1, BW25113 and BL21, three E. coli strains commonly used for microbial metabolic engineering. […] At higher concentrations of fosmidomycin, cell death was accelerated in DH1, supported by a fast reduction in optical density (OD) at 600 nm after approximately two hours of exposure to fosmidomycin. On the other hand, both BL21 and BW25113 continued to grow for approximately four hours when exposed to equivalent fosmidomycin levels. Therefore, DH1 was selected as a host strain to screen PMD mutants for improved MVAP decarboxylation activity and subsequent isopentenol production in this study.

E. coli DH1 [1] = assay: Isopentenol production in E. coli via IPP-bypass MVA pathway (GC-FID); type: cell-based, Escherichia coli
[2] = substrate: C[C@@](O)(CCOP(=O)(O)O)CC(=O)O; assay: purified protein, by the assay type; conditions: other: MVAP 0.100-4.0 mM, 4 mM ATP, pH 7.5, brackets: standard error
Description: This turnover number (kobs) depends upon each mutant's kcat, KM, and KI, yielding a more accurate assessment of the turnover conditions in vivo (Kang et al., 2016).
In vitro enzyme kinetics of PMDsc were performed as described in the previous study (Kang et al., 2016). Briefly, enzymatic activity was determined by a spectrophotometric assay quantifying ADP product formation via the pyruvate kinase/lactate dehydrogenase coupled enzyme assay. Assay mixtures were prepared in 150 μL total volume containing 50 mM HEPES-KOH (pH 7.5), 10 mM MgCl2, 400 μM phosphoenolpyruvate, 400 μM NADH, 4 mM ATP, and 25 U of pyruvate kinase/lactate dehydrogenase. The reaction was initiated by enzyme after incubating PMDsc substrate and cofactor for fifteen minutes with coupled assay components. The MVAP was varied from 0.100-4.0 mM, and the reaction velocity was determined by monitoring the absorbance at 340 nm in a Spectramax 384plus microplate reader (Molecular Devices, USA). To obtain kinetic data relevant to non-competitive substrate inhibition, MVAP was varied from 0.100-100 mM. Enzyme concentration (ε=56,630 M^−1 cm^−1) was determined spectrophotometrically at 280 nm with a NanoDrop ND-1000 spectrophotometer. kcat and KM were derived for PMDsc mutants by fitting the initial velocities measured from 0.100-4.0 mM MVAP to the Michaelis-Menten equation; KI was determined for select mutants by fitting initial velocities measured from 0.100-100 mM MVAP to the non-competitive substrate inhibition equation. All kinetic analysis was performed in Graphpad Prism, version 7.0a.

E. coli DH1 [3] = assay: Growth of E. coli DH1 under the screening conditions (MEP pathway blocked by fosmidomycin, IPP-bypass pathway + IPK); conditions: for growth under fosmidomycin selection pressure: screening platform
[4] = substrate: C[C@@](O)(CCOP(=O)(O)O)CC(=O)O; assay: In vitro kinetics of MVAP decarboxylation by PMDsc S186C (coupled assay); type: biochemical, Saccharomyces cerevisiae; conditions: other: MVAP 0.100-4.0 mM, 4 mM ATP, pH 7.5, brackets: standard error
[5] = cited from earlier work; for activity of WT for phosphomevalonate (MVAP): previous study (Kang 2015)
[6] = In vitro enzyme kinetics of PMDsc variants (pyruvate kinase/lactate dehydrogenase coupled assay); type: biochemical
[7] = substrate: C[C@@](O)(CCOP(=O)(O)O)CC(=O)O; assay: In vitro kinetics of MVAP decarboxylation by PMDsc M212Q (coupled assay); type: biochemical, Saccharomyces cerevisiae; conditions: other: MVAP 0.100-4.0 mM, 4 mM ATP, pH 7.5, brackets: standard error
[8] = substrate: C[C@@](O)(CCOP(=O)(O)O)CC(=O)O; assay: In vitro kinetics of MVAP decarboxylation by PMDsc K22Y (coupled assay); type: biochemical, Saccharomyces cerevisiae; conditions: other: MVAP 0.100-4.0 mM, 4 mM ATP, pH 7.5, brackets: standard error
[9] = substrate: C[C@@](O)(CCOP(=O)(O)O)CC(=O)O; assay: In vitro kinetics of MVAP decarboxylation by PMDsc I145A (coupled assay); type: biochemical, Saccharomyces cerevisiae; conditions: other: MVAP 0.100-4.0 mM, 4 mM ATP, pH 7.5, brackets: standard error
[10] = substrate: C[C@@](O)(CCOP(=O)(O)O)CC(=O)O; assay: In vitro kinetics of MVAP decarboxylation by PMDsc R147K (coupled assay); type: biochemical, Saccharomyces cerevisiae; conditions: other: MVAP 0.100-4.0 mM, 4 mM ATP, pH 7.5, brackets: standard error
[11] = substrate: C[C@@](O)(CCOP(=O)(O)O)CC(=O)O; assay: In vitro kinetics of MVAP decarboxylation by PMDsc Y19H (coupled assay); type: biochemical, Saccharomyces cerevisiae; conditions: other: MVAP 0.100-4.0 mM, 4 mM ATP, pH 7.5, brackets: standard error
E. coli DH1 [12] = conditions: Kang et al., 2016; cited from earlier work
[13] = text and figure legends, 48 hours after induction
[14] = 10-fold higher inducer concentration (100 nM aTc)
[15] = Table 2, screening conditions, standard deviation in brackets
[16] = compared with wild type or library mutants
[17] = Table 2, MVAP 0.100-4.0 mM, standard error in brackets
[18] = Table 2, MVAP, standard error in brackets

O=CN(O)CCCP(=O)(O)O [fosmidomycin]
growth on fosmidomycin (DH1; 10 μM fosmidomycin): no growth | exposure time until fast reduction in OD at 600 nm (DH1; higher concentrations of fosmidomycin): approximately two

B1: Saccharomyces cerevisiae diphosphomevalonate decarboxylase (PMDsc), wild type, SEQ ID NO: 1 (Saccharomyces cerevisiae S288C) (protein)
chain: MTVYTASVTAPVNIATLKYWGKRDTKLNLPTNSSISVTLSQDDLRTLTSAATAPEFERDTLWLNGEPHSIDNERTQNCLRDLRQLRKEMESKDASLPTLSQWKLHIVSENNFPTAAGLASSAAGFAALVSAIAKLYQLPQSTSEISRIARKGSGSACRSLFGGYVAWEMGKAEDGHDSMAVQIADSSDWPQMKACVLVVSDIKKDVSSTQGMQLTVATSELFKERIEHVVPKRFEVMRKAIVEKDFATFAKETMMDSNSFHATCLDSFPPIFYMNDTSKRIISWCHTINQFYGETIVAYTFDAGPNAVLYYLAENESKLFAFIYKLFGSVPGWDKKFTTEQLEAFNHQFESSNFTARELDLELQKDVARVILTQVGSGPQETNESLIDAKTGLPKE
48 hr Titer (isopentenol) (E. coli DH1 [1]): 475 (40) mg/L and 475 mg/L | isopentenol titer (E. coli DH1 [1]; [13]): 475.1 mg/L | isopentenol titer (E. coli DH1 [1]; text and figure legends, 48 hours after induction, listed as wild type): 475 mg/L | Km [2]: 2.3 ± 0.2 mM | kcat [2]: 0.15 (0.01) sec^−1 | kcat/Km [2]: 0.066 (0.007) mM^−1 sec^−1 | Growth rate (E. coli DH1 [3]; [14]): 0.83±0.01 hr^1 | growth rate (reference line FIG. 6) (E. coli DH1 [3]; FIG. 6 legend): 0.4 | Growth rate (E. coli DH1 [3]; [15]): 0.39 (0.02) hr^−1 | Growth rate (E. coli DH1 [3]; Table 3): 0.39 h⁻¹ | Growth rate (E. coli DH1 [3]; screening conditions): 0.4 h⁻¹

B2: K22Y: PMDsc mutant K22Y (protein)
chain: B1 chain with K22Y
48 hr Titer (isopentenol) (E. coli DH1 [1]): 22 (8) mg/L | isopentenol titer (E. coli DH1 [1]; [13]): 22 ± 8 mg/L | Growth rate (E. coli DH1 [3]; [15]): 0.13 (0.11) hr^−1

B3: Q140L (protein)
chain: B1 chain with Q140L
isopentenol titer (E. coli DH1 [1]; [16]): increased isopentenol production titers

B4: Saccharomyces cerevisiae diphosphomevalonate decarboxylase (PMDsc, SEQ ID NO: 1) variant R74G (Saccharomyces cerevisiae S288C; R74G) (protein)
chain: B1 chain with R74G
48 hr Titer (isopentenol) (E. coli DH1 [1]): 975 (96) mg/L and 975 mg/L | Km [2]: 3.4 (1.0) mM | kcat [2]: 0.14 (0.02) sec^−1 | kcat/Km [2]: 0.04 (0.01) mM^−1 sec^−1 | Growth rate (E. coli DH1 [3]; [15]): 0.81 (0.03) hr^−1 | Growth rate (E. coli DH1 [3]; Table 3): 0.81 h⁻¹

B5: Saccharomyces cerevisiae diphosphomevalonate decarboxylase (PMDsc, SEQ ID NO: 1) variant S186C (Saccharomyces cerevisiae S288C; S186C) (protein)
chain: B1 chain with S186C
notes: His tag; made in house; host or cells: E. coli Rosetta (DE3)
48 hr Titer (isopentenol) (E. coli DH1 [1]): 596 (110) mg/L | Km [4]: 0.8 (0.2) mM | kcat [4]: 0.07 (0.01) sec^−1 | kcat/Km [4]: 0.08 (0.02) mM^−1 sec^−1 | Growth rate (E. coli DH1 [3]; [15]): 0.30 (0.02) hr^−1

B6: E144D (protein)
chain: B1 chain with E144D
isopentenol titer (E. coli DH1 [1]; [16]): increased isopentenol production titers

B7: K22M: PMDsc mutant K22M with decreased activity, previous study (protein)
chain: B1 chain with K22M
activity of WT for phosphomevalonate (MVAP) [5]: 25% | Growth rate (E. coli DH1 [3]; [14]): 0.83±0.01 hr^1 | growth under fosmidomycin selection pressure (E. coli DH1 [3]): decreased growth rates relative to wild type

B8: R74G-R147K-Q140L: PMDsc triple mutant (protein)
chain: B1 chain with R74G, Q140L, R147K
kcat [6, 17]: 0.06 (0.01) sec^−1 | Km [6, 18]: 2000 µM | 48 hr Titer (isopentenol) (E. coli DH1 [1]): 401 (10) mg/L

B9: R74G-E144D (protein)
chain: B1 chain with R74G, E144D
isopentenol titer relative to wild type (E. coli DH1 [1]): 1.6 fold

B10: Saccharomyces cerevisiae diphosphomevalonate decarboxylase (PMDsc, SEQ ID NO: 1) variant M212Q (Saccharomyces cerevisiae S288C; M212Q) (protein)
chain: B1 chain with M212Q
notes: as for B5
48 hr Titer (isopentenol) (E. coli DH1 [1]): 601 (76) mg/L | isopentenol titer (E. coli DH1 [1]; [16]): significantly increase isopentenol titer | Km [7]: 0.7 (0.2) mM | kcat [7]: 0.35 (0.02) sec^−1 | kcat/Km [7]: 0.5 (0.1) mM^−1 sec^−1 | Growth rate (E. coli DH1 [3]; [15]): 0.09 (0.01) hr^−1

B11: Saccharomyces cerevisiae diphosphomevalonate decarboxylase (PMDsc, SEQ ID NO: 1) variant K22Y (Saccharomyces cerevisiae S288C; K22Y) (protein)
chain: B1 chain with K22Y
notes: as for B5
Km [8]: 1.3 (0.3) mM | kcat [8]: 0.09 (0.01) sec^−1 | kcat/Km [8]: 0.12 (0.03) mM^−1 sec^−1

B12: S208E: inactive PMDsc mutant, negative control (protein)
chain: B1 chain with S208E
activity toward MVAP ([5]; Kang et al., 2016): inactive toward MVAP | activity of WT for phosphomevalonate (MVAP) [5]: not detectible | growth under fosmidomycin selection pressure (E. coli DH1 [3]): none of three IPK-expressing DH1 strains (SP4, SP5 and SP6) could grow

B13: Saccharomyces cerevisiae diphosphomevalonate decarboxylase (PMDsc, SEQ ID NO: 1) variant I145A (Saccharomyces cerevisiae S288C; I145A) (protein)
chain: B1 chain with I145A
notes: as for B5
48 hr Titer (isopentenol) (E. coli DH1 [1]): 623 (140) mg/L | Km [9]: 2 (1) mM | kcat [9]: 0.029 (0.004) sec^−1 | kcat/Km [9]: 0.01 (0.01) mM^−1 sec^−1 | Growth rate (E. coli DH1 [3]; [15]): 0.17 (0.00) hr^−1

B14: Saccharomyces cerevisiae diphosphomevalonate decarboxylase (PMDsc, SEQ ID NO: 1) variant R147K (Saccharomyces cerevisiae S288C; R147K) (protein)
chain: B1 chain with R147K
notes: as for B5
48 hr Titer (isopentenol) (E. coli DH1 [1]): 793 (22) mg/L | isopentenol titer (E. coli DH1 [1]; [16]): increased isopentenol production titers | Km [10]: 0.5 (0.1) mM | kcat [10]: 0.149 (0.006) sec^−1 | kcat/Km [10]: 0.32 (.09) mM^−1 sec^−1 | Growth rate (E. coli DH1 [3]; [15]): 0.56 (0.02) hr^−1

B15: S155E (protein)
chain: B1 chain with S155E
growth under fosmidomycin selection pressure (E. coli DH1 [3]): impaired growth

B16: Saccharomyces cerevisiae diphosphomevalonate decarboxylase (PMDsc, SEQ ID NO: 1) variant Y19H (Saccharomyces cerevisiae S288C; Y19H) (protein)
chain: B1 chain with Y19H
notes: as for B5
48 hr Titer (isopentenol) (E. coli DH1 [1]): 388 (9) mg/L | isopentenol titer (E. coli DH1 [1]; [16]): significantly decreased isopentenol titers | Km [11]: 0.35 (0.02) mM | kcat [11]: 0.27 (0.01) sec^−1 | kcat/Km [11]: 0.78 (0.06) mM^−1 sec^−1 | Growth rate (E. coli DH1 [3]; [15]): 0.22 (0.01) hr^−1

B17: T209D (protein)
chain: B1 chain with T209D
isopentenol titer in E. coli (E. coli DH1 [12]): did not significantly change the isopentenol titer

B18: R74G-R147K: PMDsc double mutant (protein)
chain: B1 chain with R74G, R147K
kcat [6, 17]: 0.22 (0.01) sec^−1 | Km [6, 18]: 530 µM | isopentenol titer relative to wild type (E. coli DH1 [1]): 1.9 fold | 48 hr Titer (isopentenol) (E. coli DH1 [1]): 909 (25) mg/L | Growth rate (E. coli DH1 [3]; [15]): 0.84 (0.04) hr^−1

B19: V230E: PMDsc mutant V230E (protein)
chain: B1 chain with V230E
Ki ([6]; MVAP up to 100 mM, read-out: KI (substrate inhibition)): 10 mM | kcat [6, 17]: 0.07 (0.01) sec^−1 | Km [6, 18]: 800 µM | Km ([6]; Table 3): 800 µM | kcat ([6]; Table 3): 0.07 s⁻¹ | kobs ([6]; Table 3, observed turnover number calculated at 100 mM MVAP): 0.006 s⁻¹ | 48 hr Titer (isopentenol) (E. coli DH1 [1]): 278 (91) mg/L and 278 mg/L | Growth rate (E. coli DH1 [3]; [15]): 0.21 (0.18) hr^−1 | Growth rate (E. coli DH1 [3]; Table 3): 0.2 h⁻¹
